Assay results as given in US9526786B2, “Thermostabilization of proteins” (The Trustee of Columbia University in the City of New York, priority 2007, dated 2016).
Positions count from the first letter of the chain named. Names may count otherwise.

Assays:
CocE [1] = biological target: T1, CocE (Rhodococcus sp., UniProt Q9L9D7); type: biochemical, Rhodococcus sp. MB 1; details: cocaine: 62.5 and 125 μM; benzoic acid: higher concentrations
T1 construct: 6xHis (C); made in house; host or cells: E. coli BL-21 Gold (DE3), pET-22b(+)
T1 sequence (Q9L9D7 1-574): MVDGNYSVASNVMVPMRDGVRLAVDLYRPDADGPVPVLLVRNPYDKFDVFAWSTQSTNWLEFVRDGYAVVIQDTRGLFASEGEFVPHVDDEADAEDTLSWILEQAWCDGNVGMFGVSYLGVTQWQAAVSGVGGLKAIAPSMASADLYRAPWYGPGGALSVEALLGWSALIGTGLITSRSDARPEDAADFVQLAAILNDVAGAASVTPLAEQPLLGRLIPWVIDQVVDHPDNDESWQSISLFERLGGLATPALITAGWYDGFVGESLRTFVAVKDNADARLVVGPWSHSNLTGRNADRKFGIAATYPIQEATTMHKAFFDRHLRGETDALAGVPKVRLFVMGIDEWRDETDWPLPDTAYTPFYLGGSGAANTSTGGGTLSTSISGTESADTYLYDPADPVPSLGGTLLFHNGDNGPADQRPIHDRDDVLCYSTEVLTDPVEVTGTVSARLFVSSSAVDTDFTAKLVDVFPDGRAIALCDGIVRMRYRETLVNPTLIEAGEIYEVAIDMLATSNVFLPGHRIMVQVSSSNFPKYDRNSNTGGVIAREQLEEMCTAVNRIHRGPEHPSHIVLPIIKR
Procedure: CocE is also able to cleave another substrate, 4-nitrophenyl acetate (FIG. 3). Cleavage is monitored by detection of the appearance of the 4-nitrophenol reaction product, which absorbs at 400 nm.
Further spectrophotometric analysis of cocaine stabilization was performed, by analyzing the ability of CocE to cleave 4-nitrophenyl acetate, after preincubation at 37° C. for various times, in the presence of various concentrations of cocaine. […] However, preincubation of CocE at the higher concentrations for various times at 37° C. indicated the enzyme was stabilized enough to be able to cleave the 4-nitrophenyl substrate (FIG. 5).

CocE WT = biological target: T2, CocE WT (Rhodococcus sp., UniProt Q9L9D7); experiment: Inhibition of CocE WT aggregate formation, non-denaturing gel, 1 hour at 37° C.; set-up: species or system Rhodococcus sp. MB 1
T2 construct: 6xHis (C); made in house; host or cells: E. coli BL-21 Gold (DE3), pET-22b(+)
T2 sequence (Q9L9D7 1-574): T1 sequence (Q9L9D7 1-574)
Source text: To further study CocE stabilization with small molecules, other inhibitors of the CocE cleavage reaction were considered.

CocE [2] = biological target: T1, CocE; type: biochemical, Rhodococcus sp. MB 1; details: for stabilization of CocE at 37° C., lower concentrations: cocaine lower than 62.5 μM, others below 125 μM
Procedure: Further spectrophotometric analysis of cocaine stabilization was performed, by analyzing the ability of CocE to cleave 4-nitrophenyl acetate, after preincubation at 37° C. for various times, in the presence of various concentrations of cocaine.

[3] = test system: cocaine-induced lethality; experiment: In vivo potency of protection against cocaine-induced lethality; set-up: species or system NIH-Swiss mice
[4] = Procedure: Analysis of CocE action on cocaine cleavage is performed by utilizing the spectroscopic properties of cocaine, which maximally absorbs light at a 240 nm wavelength. CocE activity is measured by monitoring for a decrease in signal at A240, using various concentrations of cocaine, and determining the initial rate of the decrease. From these values the Vmax of the enzyme can be determined. By pre-incubating the enzyme at 37° C. for various times before monitoring for activity, the half life of CocE at 37° C. can be calculated.
The initial rates (of decay) were determined by following the change in the intrinsic absorbance of cocaine at 240 nm (6700 M^1 cm^1)(Xie et al., 1999) using a SpectraMax Plus 384 UV plate reader (Molecular Devices, Sunnyvale, Calif.) using SOFTmax Pro software (Version 3.1.2). The reaction was initiated by adding 100 μL of a 2× enzyme solution (100 mM phosphate buffer, pH 7.4 and 300 mM NaCl) to 100 μL of a 2× cocaine solution (50 μg/mL enzyme, 100 mM Phosphate Buffer, pH 7.4 and 300 mM NaCl). All assays were performed with 100 μM DTT unless indicated otherwise. […] For stability measurements, wild type and mutant enzymes were diluted to 2× concentration and incubated at 37° C. for the times indicated. At the end of each time point, an aliquot was removed and kinetic behavior was observed as outlined above.
(§1) In vitro kinetic assays. […] Initial rates were then used to determine Michaelis-Menten parameters. To assess thermal stability, enzyme preparations were preincubated at 37° C. for various lengths of time, prior to measurement of residual activities (Table 1 and FIG. 23).

[5] = Michaelis-Menten kinetics of cocaine hydrolysis (absorbance at 240 nm); type: biochemical
Procedure: The initial rates (of decay) were determined by following the change in the intrinsic absorbance of cocaine at 240 nm (6700 M^1 cm^1)(Xie et al., 1999) using a SpectraMax Plus 384 UV plate reader (Molecular Devices, Sunnyvale, Calif.) using SOFTmax Pro software (Version 3.1.2). The reaction was initiated by adding 100 μL of a 2× enzyme solution (100 mM phosphate buffer, pH 7.4 and 300 mM NaCl) to 100 μL of a 2× cocaine solution (50 μg/mL enzyme, 100 mM Phosphate Buffer, pH 7.4 and 300 mM NaCl). All assays were performed with 100 μM DTT unless indicated otherwise. Final cocaine concentrations were as follows: 125, 62.5, 31.25, 15.63, 7.81, 3.91, 1.95, and 0.977 μM. Vmax and Km values were calculated using Prism (GraphPad Software, San Diego). For stability measurements, wild type and mutant enzymes were diluted to 2× concentration and incubated at 37° C. for the times indicated. At the end of each time point, an aliquot was removed and kinetic behavior was observed as outlined above.
as §1
Determination of Catalytic Efficiency. To determine the catalytic activity a spectrophometric assay was performed. Samples of L169K/G173Q CocE were added to a 96-well UV permeable plate containing increasing cocaine concentrations (0.5, 2.5, 5, 12.5, 25, 50, 100, and 150 μM) to give a final concentration of 10 ng/ml CocE in a final volume of 200 μl. The change in absorbance at 240 nm was measured over 20 minutes, with readings every 10 seconds, by a SpectraMax Plus 384 UV plate reader (Molecular Devices, Sunnyvale, Calif.) using SOFTmax Pro software (Version 3.1.2). The change in absorbance was converted to the change in concentration and furthermore the rate of decay per mole enzyme is determined (Kcat). Kcat and Km of the enzyme are determined using Prism (GraphPad software, San Diego).

[6] = test system: cocaine-induced lethality; experiment: In vivo duration of protection against cocaine-induced lethality; set-up: species or system NIH-Swiss mice
Procedure: In vivo protection against cocaine lethality. Male NIH-Swiss mice (25-32 g) were obtained from Harlan Inc. (Indianapolis, Ind.) and were housed in groups of 6 mice per cage. All mice were allowed ad libitum access to food and water, and were maintained on a 12-h light-dark cycle with lights on at 06.30 AM in a room kept at a temperature of 21-22° C. Experiments were performed in accordance with the Guide for the Care and Use of Laboratory Animals as adopted and promulgated by the National Institutes of Health. The experimental protocols were approved by the University Committee on the Use and Care of Animals at the University of Michigan.
Cocaine-induced toxicity was characterized by the occurrence of lethality, as defined by the cessation of observed movement and respiration. Mice were placed individually in Plexiglas observation chambers (16×28×20 cm high) to be habituated for 15 min before drug administration. Following intra-peritoneal (i.p.) cocaine administration, the mouse was immediately placed individually in the same chamber for observation. The presence or absence of lethality was recorded for 60 min following cocaine administration. The mouse was placed in a small restraint chamber (Outer tube diameter: 30 mm; Inner tube diameter: 24 mm) that left the tail exposed. The tail was cleansed with an alcohol wipe and a 30G1/2 precision glide needle (Fisher Scientific, Pittsburgh, Pa.) was inserted into one of the side veins for infusion. The i.v. injection volume of CocE or CocE mutant was 0.2 mL per mouse. Sterile gauze and pressure were applied to the injection site to staunch the bleeding.
Lethality was monitored following injection at 1, 5, 10, or 30 min, or 1, 2, 3, 4, 5 hours after enzyme administration. Each treatment used 8 mice to assess the percent of lethality (i.e., protection) in mice pretreated with a single dose of an esterase at a single time point.
These values were used to compare the degree of rightward shifts of cocaine's dose-response curve in the absence or presence of the enzyme pretreatment. In the time course study, a time point for duration of protection (i.e., 50% of lethality) was estimated by using each time course curve crossing 50% occurrence of lethality.
Evaluation of in vivo half life. CocE is administered IV to the tail vein in a volume of 0.2 ml. Animals are challenged with 180 mg/kg cocaine delivered intraperitoneally at a given time after CocE administration.

[7] = 1 mg i.v., cocaine 180 mg/kg i.p.

With `O=C(O)c1ccccc1` [benzoic acid] the “inhibition of 4-nitrophenyl acetate cleavage” value (CocE [1]) was “inhibit”, the “inhibition of formation of CocE protein aggregates” value (CocE WT) was “inhibited the formation of aggregates” and the “stabilization of CocE at 37° C., higher concentrations” value (CocE [2]; cocaine 62.5 and 125 μM, benzoic acid above 125 μM) was “stabilize”. For the same molecule, the “stabilization of CocE at 37° C., lower concentrations” value (“stabilization … lower concentrations” for short) (CocE [2]) was “did not reveal any stabilization”.

For `COC(=O)[C@@H]1[C@H]2CC[C@@H](C[C@@H]1O)N2C` [ecgonine methyl ester], the “inhibition of formation of CocE protein aggregates” value (CocE WT) was “could not” and the “stabilization … lower concentrations” value (CocE [2]) was “did not reveal any stabilization”.

With `CC(=O)[O-].[Na+]` [sodium acetate] the “inhibition of formation of CocE protein aggregates” value (CocE WT) was “could not” and the “stabilization … lower concentrations” value (CocE [2]) was “did not reveal any stabilization”.

B1: T172R/G173Q: CocE double mutant (protein, listed as Rhodococcus sp.)
chain: T1 sequence (Q9L9D7 1-574) with T172R, G173Q
With B1 the “protection against cocaine-induced lethality” value ([3]; i.v. pretreatment 1 min prior to i.p. cocaine) was “protected”, the “Stability @ 37 (t1/2)” value [4] was roughly 5.43 h and the “half-life / τinact of activity at 37° C.” value [4] was 5.43 h. The “t1/2” value [4] was 5.43 h, the “plateau of catalytic activity, percent of maximal” value ([4]; 37° C., after greater than 8 hr / t=10 hours) was “approximately 35%” and the “extension of in vitro τinact at 37° C.” value ([4]; from 10 min) was “approximately 27 fold”. The “Kcat(mol · s^−1 · mol^−1)” value ([5]; cocaine) was 2247 mol · s^−1 · mol^−1, the “LT50, pretreatment time to 50% lethality” value [6, 7] was “up to 4.5 hr” and the “LT50, pretreatment time to 50% lethality” value ([6]; 1 mg i.v., cocaine 180 mg/kg i.p., listed as T172R-G173Q) was roughly 4.5 h. For the same molecule, the “extension of pretreatment duration with 50% protection” value ([6]; mouse, in vivo) was “greater than 20 fold”.

B2: L169K/G173Q: CocE double mutant, SEQ ID NO:1 with substitutions L169K and G173Q (protein, listed as Rhodococcus sp.)
chain: T1 sequence (Q9L9D7 1-574) with L169K, G173Q
For B2, the “lowest dose maintaining some degree of protection” value ([3]; i.v., cocaine i.p. 1 min later) was 0.01 mg, the “protection from increasing lethal doses of cocaine” value ([3]; i.v., cocaine i.p. 1 min later) was “dose-dependently protected” and the “turnover per molecule of enzyme” value [5] was “approximately 6000 molecules of cocaine per minute”. For the same molecule, the “time for which 50% of mice were protected from death” value [6, 7] was “up to 7.5 hrs”.

B3: L169K/G173Q/T172R: CocE triple mutant (protein)
chain: T1 sequence (Q9L9D7 1-574) with L169K, T172R, G173Q
With B3 the “enhanced stabilization at 37° C.” value ([4]; data not shown) was “did not display an enhanced stabilization”.

B4: G173Q: CocE mutant (protein, listed as Rhodococcus sp.)
chain: T1 sequence (Q9L9D7 1-574) with G173Q
With B4 the “Stability @ 37 (t1/2)” value [4] was roughly 0.417 h.
